# ± gives the standard deviation of the averaged measurements.
# B1: library; a variant is named by its letters at N, in order (parent)
# chain: GAGACCGCAACTGAAAAGTTGTGGNNNNNATAGTGAGTCGCTGCCTGCAAAGACACAACT
# Variants of: B1
# Test: ligation selection enrichment (abundance after / before one-round selection) (fold); higher = more template-directed ligation activity
# Details: with T7Psub CACGGAUGCUAAUACGACUCACUAUA; MgCl2 25 mM; 42 °C; 4 h; pH 8.5
# Summary of the method: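 An RNA ligase library with five randomized core positions, prepared by T7 transcription, was incubated at 0.75 μM with 6 μM RNA substrate in 50 mM EPPS pH 8.5 and 25 mM MgCl2 for 4 h at 42 °C, in two independent experiments. Ligated products were purified by PAGE, reverse transcribed, barcoded by PCR and sequenced on a MiSeq, and reads with a quality score of ≥30 at every randomized position were counted. Enrichment was calculated as abundance after ligation divided by abundance before ligation.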
row,Variant,ligation selection enrichment
1,GAGACCGCAACTGAAAAGTTGTGGAGGCTATAGTGAGTCGCTGCCTGCAAAGACACAACT [AGGCT],0.587 ± 0.3
2,GAGACCGCAACTGAAAAGTTGTGGAGGCAATAGTGAGTCGCTGCCTGCAAAGACACAACT [AGGCA],0.255 ± 0.066
3,GAGACCGCAACTGAAAAGTTGTGGAGGCCATAGTGAGTCGCTGCCTGCAAAGACACAACT [AGGCC],0.21 ± 0.013
4,GAGACCGCAACTGAAAAGTTGTGGCGGTTATAGTGAGTCGCTGCCTGCAAAGACACAACT [CGGTT],0.202 ± 0.042
5,GAGACCGCAACTGAAAAGTTGTGGCGGTCATAGTGAGTCGCTGCCTGCAAAGACACAACT [CGGTC],0.1 ± 0.011
6,GAGACCGCAACTGAAAAGTTGTGGCGGTGATAGTGAGTCGCTGCCTGCAAAGACACAACT [CGGTG],0.24 ± 0.069
7,GAGACCGCAACTGAAAAGTTGTGGCGGTAATAGTGAGTCGCTGCCTGCAAAGACACAACT [CGGTA],0.133 ± 0.028
8,GAGACCGCAACTGAAAAGTTGTGGGGGTTATAGTGAGTCGCTGCCTGCAAAGACACAACT [GGGTT],0.318 ± 0.011
9,GAGACCGCAACTGAAAAGTTGTGGGGGTGATAGTGAGTCGCTGCCTGCAAAGACACAACT [GGGTG],0.317 ± 0.033
10,GAGACCGCAACTGAAAAGTTGTGGGGGTCATAGTGAGTCGCTGCCTGCAAAGACACAACT [GGGTC],0.201 ± 0.006
11,GAGACCGCAACTGAAAAGTTGTGGGGGTAATAGTGAGTCGCTGCCTGCAAAGACACAACT [GGGTA],0.445 ± 0.024
12,GAGACCGCAACTGAAAAGTTGTGGTGGTGATAGTGAGTCGCTGCCTGCAAAGACACAACT [TGGTG],0.288 ± 0.042
13,GAGACCGCAACTGAAAAGTTGTGGTGGTTATAGTGAGTCGCTGCCTGCAAAGACACAACT [TGGTT],0.438 ± 0.044
14,GAGACCGCAACTGAAAAGTTGTGGTGGTAATAGTGAGTCGCTGCCTGCAAAGACACAACT [TGGTA],0.325 ± 0.017
15,GAGACCGCAACTGAAAAGTTGTGGTGGTCATAGTGAGTCGCTGCCTGCAAAGACACAACT [TGGTC],0.198 ± 0.019
16,GAGACCGCAACTGAAAAGTTGTGGAGCTAATAGTGAGTCGCTGCCTGCAAAGACACAACT [AGCTA],0.209 ± 0.011
17,GAGACCGCAACTGAAAAGTTGTGGAGCTGATAGTGAGTCGCTGCCTGCAAAGACACAACT [AGCTG],0.198 ± 0.0052
18,GAGACCGCAACTGAAAAGTTGTGGAGCTTATAGTGAGTCGCTGCCTGCAAAGACACAACT [AGCTT],0.149 ± 0.13
19,GAGACCGCAACTGAAAAGTTGTGGAGCTCATAGTGAGTCGCTGCCTGCAAAGACACAACT [AGCTC],0.104 ± 0.0069
20,GAGACCGCAACTGAAAAGTTGTGGTGCTGATAGTGAGTCGCTGCCTGCAAAGACACAACT [TGCTG],0.17 ± 0.017
21,GAGACCGCAACTGAAAAGTTGTGGTGCTCATAGTGAGTCGCTGCCTGCAAAGACACAACT [TGCTC],0.117 ± 0.022
22,GAGACCGCAACTGAAAAGTTGTGGTGCTTATAGTGAGTCGCTGCCTGCAAAGACACAACT [TGCTT],0.0805 ± 0.021
23,GAGACCGCAACTGAAAAGTTGTGGTGCTAATAGTGAGTCGCTGCCTGCAAAGACACAACT [TGCTA],0.17 ± 0.012

row,Variant,ligation selection enrichment
1,GAGACCGCAACTGAAAAGTTGTGGTGGGGATAGTGAGTCGCTGCCTGCAAAGACACAACT [TGGGG],0.228 ± 0.049
2,GAGACCGCAACTGAAAAGTTGTGGTGGGAATAGTGAGTCGCTGCCTGCAAAGACACAACT [TGGGA],0.263 ± 0.038
3,GAGACCGCAACTGAAAAGTTGTGGTGGGCATAGTGAGTCGCTGCCTGCAAAGACACAACT [TGGGC],0.171 ± 0.022
4,GAGACCGCAACTGAAAAGTTGTGGTGGGTATAGTGAGTCGCTGCCTGCAAAGACACAACT [TGGGT],0.417 ± 0.23
5,GAGACCGCAACTGAAAAGTTGTGGCGCGGATAGTGAGTCGCTGCCTGCAAAGACACAACT [CGCGG],0.533 ± 0.12
6,GAGACCGCAACTGAAAAGTTGTGGCGCGTATAGTGAGTCGCTGCCTGCAAAGACACAACT [CGCGT],0.237 ± 0.0082
7,GAGACCGCAACTGAAAAGTTGTGGCGGATATAGTGAGTCGCTGCCTGCAAAGACACAACT [CGGAT],57.6 ± 1.5
8,GAGACCGCAACTGAAAAGTTGTGGCGGAGATAGTGAGTCGCTGCCTGCAAAGACACAACT [CGGAG],0.459 ± 0.021
9,GAGACCGCAACTGAAAAGTTGTGGCGGACATAGTGAGTCGCTGCCTGCAAAGACACAACT [CGGAC],3.77 ± 0.4
10,GAGACCGCAACTGAAAAGTTGTGGCGGAAATAGTGAGTCGCTGCCTGCAAAGACACAACT [CGGAA],1.02 ± 0.075
11,GAGACCGCAACTGAAAAGTTGTGGGGCTGATAGTGAGTCGCTGCCTGCAAAGACACAACT [GGCTG],0.393 ± 0.032
12,GAGACCGCAACTGAAAAGTTGTGGGGCTTATAGTGAGTCGCTGCCTGCAAAGACACAACT [GGCTT],0.164 ± 0.12
13,GAGACCGCAACTGAAAAGTTGTGGGGCTAATAGTGAGTCGCTGCCTGCAAAGACACAACT [GGCTA],0.228 ± 0.037
14,GAGACCGCAACTGAAAAGTTGTGGGGCTCATAGTGAGTCGCTGCCTGCAAAGACACAACT [GGCTC],0.149 ± 0.0062
15,GAGACCGCAACTGAAAAGTTGTGGCGCTCATAGTGAGTCGCTGCCTGCAAAGACACAACT [CGCTC],0.0791 ± 0.025
16,GAGACCGCAACTGAAAAGTTGTGGCGCTGATAGTGAGTCGCTGCCTGCAAAGACACAACT [CGCTG],0.141 ± 0.026
17,GAGACCGCAACTGAAAAGTTGTGGCGCTAATAGTGAGTCGCTGCCTGCAAAGACACAACT [CGCTA],0.127 ± 0.032
18,GAGACCGCAACTGAAAAGTTGTGGCGCTTATAGTGAGTCGCTGCCTGCAAAGACACAACT [CGCTT],0.126 ± 0.017
19,GAGACCGCAACTGAAAAGTTGTGGAGGTTATAGTGAGTCGCTGCCTGCAAAGACACAACT [AGGTT],0.245 ± 0.075
20,GAGACCGCAACTGAAAAGTTGTGGAGGTGATAGTGAGTCGCTGCCTGCAAAGACACAACT [AGGTG],0.279 ± 0.036
21,GAGACCGCAACTGAAAAGTTGTGGAGGTCATAGTGAGTCGCTGCCTGCAAAGACACAACT [AGGTC],0.196 ± 0.011
22,GAGACCGCAACTGAAAAGTTGTGGAGGTAATAGTGAGTCGCTGCCTGCAAAGACACAACT [AGGTA],0.41 ± 0.019
